Measured values: article PMC1865076

Tests used:
His6-Ovol1 [1] = target: T1, His6-Ovol1 (UniProt Q9WTJ2 1-267); test: EMSA
His6-Ovol1 [2] = target: T1, His6-Ovol1; test: competition
c-Myb R2R3 = c-Myb R2R3 (chicken, UniProt P01103 87-193); test: EMSA
Chain of c-Myb R2R3 (P01103 87-193): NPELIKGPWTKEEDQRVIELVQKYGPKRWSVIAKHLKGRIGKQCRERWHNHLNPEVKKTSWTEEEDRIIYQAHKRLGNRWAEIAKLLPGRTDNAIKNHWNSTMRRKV

T1 sequence (Q9WTJ2 whole entry): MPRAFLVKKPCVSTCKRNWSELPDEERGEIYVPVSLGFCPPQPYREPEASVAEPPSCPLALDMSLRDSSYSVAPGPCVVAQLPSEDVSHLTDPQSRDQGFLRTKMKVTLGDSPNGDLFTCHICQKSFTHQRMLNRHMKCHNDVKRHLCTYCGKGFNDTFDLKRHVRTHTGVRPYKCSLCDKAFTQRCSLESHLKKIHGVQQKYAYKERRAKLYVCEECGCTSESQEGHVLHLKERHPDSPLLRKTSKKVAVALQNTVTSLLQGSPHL

B1: mim-C (dsDNA)
DNA 1: GTTGATTTCCATCTGTTATTTGAGCTAAG
DNA 2: CTTAGCTCAAATAACAGATGGAAATCAAC
binding result (His6-Ovol1 [1]): no binding

B2: mim-A (dsDNA)
DNA 1: AGCGCTAAAAAACCGTTATAATGTGCAGAT
DNA 2: ATCTGCACATTATAACGGTTTTTTAGCGCT
binding result (His6-Ovol1 [2]): binds
binding result (c-Myb R2R3): binds
